Test results from patent US20250043302A1, “MUTATED HYDROXYPHENYLPYRUVATE DIOXYGENASE POLYPEPTIDE, AND CODING GENE AND USE THEREOF” (BEIJING DABEINONG BIOTECHNOLOGY CO., LTD., priority 2021, published 2025).

Tests used:
Type in all cases: in vivo
[1] = tested on: Arabidopsis thaliana T1 plants; experiment: Isoxaflutole tolerance of transgenic Arabidopsis thaliana T1 plants (spray, bleached leaf area grade, damage score); parameters: Scores (pesticide damage): scale not given here; details: spray, Arabidopsis thaliana T1 plants; for Classification and statistics of the grade of pesticide damage: Grade 0 (number of plants) / Classification and statistics of the grade of pesticide damage: Grade 1 (number of plants) / Classification and statistics of the grade of pesticide damage: Grade 2 (number of plants) / Classification and statistics of the grade of pesticide damage: Grade 3 (number of plants): 16 plants
How it was run: (§1)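 Damage was assessed by bleaching grade (0 none; 1 <50%; 2 >50%; 3 100% of leaf area) one week after spraying. Sprays on 18-day-old T1 and wild-type plants used field-rate multiples: topramezone 25–200, isoxaflutole 35–280, mesotrione 52.5–420 g ai/ha.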

[2] = tested on: Arabidopsis thaliana T1 plants; experiment: Topramezone tolerance of transgenic Arabidopsis thaliana T1 plants (spray, bleached leaf area grade, damage score); details: 7 DAT, Table 4; for Classification and statistics of the grade of pesticide damage: Grade 0 / Classification and statistics of the grade of pesticide damage: Grade 1 / Classification and statistics of the grade of pesticide damage: Grade 2 / Classification and statistics of the grade of pesticide damage: Grade 3: number of plants; for Scores: pesticide damage score 0-100
How it was run: as §1

[3] = tested on: Arabidopsis thaliana T1 plants; experiment: Mesotrione tolerance of transgenic Arabidopsis thaliana T1 plants (spray, bleached leaf area grade, damage score); parameters: Scores: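 damage score 0-100 computed as Σ(N×S)/(T×M)×100 over grades 0-3 with higher meaning more damage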; details: Arabidopsis thaliana T1 plants; for Grade 0 (classification and statistics of the grade of pesticide damage; number of plants) / Grade 1 (classification and statistics of the grade of pesticide damage; number of plants) / Grade 2 (classification and statistics of the grade of pesticide damage; number of plants) / Grade 3 (classification and statistics of the grade of pesticide damage; number of plants): 16 plants
How it was run: as §1

[4] = isoxaflutole 35 g ai/ha (0.5x field concentration)
[5] = isoxaflutole 70 g ai/ha (1x field concentration)

Molecule	Resistance evaluation [1, 4]	Scores (pesticide damage) [1, 4]	Classification and statistics of the grade of pesticide damage: Grade 0 (number of plants) [1, 4]	Classification and statistics of the grade of pesticide damage: Grade 1 (number of plants) [1, 4]	Classification and statistics of the grade of pesticide damage: Grade 2 (number of plants) [1, 4]	Classification and statistics of the grade of pesticide damage: Grade 3 (number of plants) [1, 4]	Resistance evaluation [1, 5]	Scores (pesticide damage) [1, 5]	Classification and statistics of the grade of pesticide damage: Grade 0 (number of plants) [1, 5]	Classification and statistics of the grade of pesticide damage: Grade 1 (number of plants) [1, 5]	Classification and statistics of the grade of pesticide damage: Grade 2 (number of plants) [1, 5]	Classification and statistics of the grade of pesticide damage: Grade 3 (number of plants) [1, 5]	Classification and statistics of the grade of pesticide damage: Grade 0 ([2]; topramezone 25 g ai/ha (1×))	Classification and statistics of the grade of pesticide damage: Grade 1 ([2]; topramezone 25 g ai/ha (1×))	Classification and statistics of the grade of pesticide damage: Grade 2 ([2]; topramezone 25 g ai/ha (1×))	Classification and statistics of the grade of pesticide damage: Grade 3 ([2]; topramezone 25 g ai/ha (1×))	Classification and statistics of the grade of pesticide damage: Grade 0 ([2]; topramezone 100 g ai/ha (4×))	Classification and statistics of the grade of pesticide damage: Grade 1 ([2]; topramezone 100 g ai/ha (4×))	Classification and statistics of the grade of pesticide damage: Grade 2 ([2]; topramezone 100 g ai/ha (4×))	Classification and statistics of the grade of pesticide damage: Grade 3 ([2]; topramezone 100 g ai/ha (4×))	further results
GmHPPDm-F383W-02: nucleotide sequence encoding Glycine max HPPD with F383W; vector DBN11748 (nucleic acid, GmHPPDm-F383W-02 Nucleotide Sequence, vector DBN11748) DNA: ATGCCAATGTACACACCATCGCTCTCCGCCCCTTCTTCCAACCATATTCAGCCATCCGTGACTCTGCCTCTCTACATCACAACCACCAAGTTGAACCTGAAGCAGCAGCACCATACGACTCCTATGCCTATACCCATGTGCAATGAGATCCAAGCACAGGCTCAGGCACAAGCTCAACCCGGATTCAAACTCGTGGGATTCAAGAACTTCGTCCGTACCAATCCAAAATCTGACCGCTTCCAGGTGAACAGATTCCACCACATAGAGTTTTGGTGTACTGATGCAACGAATGCTTCGAGGAGGTTTTCATGGGGCTTAGGCATGCCGATTGTAGCAAAGTCAGACCTTTCTACAGGGAACCAAATTCATGCAAGCTATCTGCTCCGCTCAGGTGATTTGTCTTTCTTGTTCTCAGCTCCATATTCTCCATCATTATCTGCTGGGTCATCAGCAGCATCTAGTGCGTCGATCCCTAGCTTTGATGCCGCCACCTGCCTCGCCTTCGCCGCCAAACATGGATTTGGTGTTCGCGCCATTGCTCTTGAGGTTGCCGATGCCGAGGCTGCTTTTAGCGCCTCCGTCGCCAAGGGAGCTGAGCCTGCGTCACCTCCTGTTCTTGTTGATGATCGAACTGGTTTTGCTGAAGTGCGTCTTTACGGCGACGTGGTGCTCAGATATGTTAGTTACAAGGATGCTGCTCCTCAAGCGCCGCACGCTGATCCTTCAAGATGGTTTCTTCCGGGGTTTGAGGCCGCTGCTAGTTCATCTTCCTTCCCGGAGTTGGATTACGGCATACGGCGGCTTGACCATGCTGTCGGCAATGTTCCTGAGCTTGCTCCGGCGGTACGGTACTTGAAAGGTTTCTCCGGGTTCCATGAATTTGCAGAGTTCACGGCGGAAGATGTTGGAACAAGTGAAAGCGGATTGAATTCTGTTGTTTTGGCCAACAACAGTGAAACTGTTCTGCTCCCCCTCAATGAACCAGTTTATGGCACAAAGCGCAAGAGCCAGATTGAAACATATCTCGAGCACAATGAAGGCGCCGGCGTCCAGCATCTTGCTTTGGTGACTCATGATATCTTCACAACACTTAGGGAGATGAGGAAGAGGAGTTTCCTCGGCGGGTTTGAATTCATGCCCAGTCCCCCGCCGACCTACTATGCAAATCTGCACAACAGGGCTGCAGATGTGCTGACTGTAGACCAGATCAAGCAATGTGAAGAACTTGGAATTTTAGTGGATAGAGACGACCAAGGTACACTACTTCAAATATTCACCAAACCAGTCGGTGACAGACCAACAATTTGGATCGAGATTATACAAAGAATTGGATGCATGGTCGAGGATGAAGAAGGGAAGGTGTACCAGAAGGGAGCATGTGGTGGTTTTGGGAAAGGAAATTTTTCTGAGCTGTTTAAATCCATCGAGGAATATGAGAAAACCTTAGAAGCTAAAAGAACTGCATGA	Non-resistant	81	0	0	9	7	Non-resistant	100	0	0	0	16	0	3	9	4	0	0	0	16	Scores ([2]; topramezone 25 g ai/ha (1×)): 69; Scores ([2]; topramezone 100 g ai/ha (4×)): 100; Resistance evaluation ([2]; topramezone 25 g ai/ha (1×)): non-resistant (non-resistant plants (scores 68-100)); Resistance evaluation ([2]; topramezone 100 g ai/ha (4×)): non-resistant (non-resistant plants (scores 68-100)); Resistance evaluation ([3]; mesotrione 52.5 g ai/ha): Non-resistant; Scores ([3]; mesotrione 52.5 g ai/ha): 100; Grade 0 (classification and statistics of the grade of pesticide damage; number of plants) ([3]; mesotrione 52.5 g ai/ha): 0; Grade 1 (classification and statistics of the grade of pesticide damage; number of plants) ([3]; mesotrione 52.5 g ai/ha): 0; Grade 2 (classification and statistics of the grade of pesticide damage; number of plants) ([3]; mesotrione 52.5 g ai/ha): 0; Grade 3 (classification and statistics of the grade of pesticide damage; number of plants) ([3]; mesotrione 52.5 g ai/ha): 16; Resistance evaluation ([3]; mesotrione 105 g ai/ha): Non-resistant; Scores ([3]; mesotrione 105 g ai/ha): 100; Grade 0 (classification and statistics of the grade of pesticide damage; number of plants) ([3]; mesotrione 105 g ai/ha): 0; Grade 1 (classification and statistics of the grade of pesticide damage; number of plants) ([3]; mesotrione 105 g ai/ha): 0; Grade 2 (classification and statistics of the grade of pesticide damage; number of plants) ([3]; mesotrione 105 g ai/ha): 0; Grade 3 (classification and statistics of the grade of pesticide damage; number of plants) ([3]; mesotrione 105 g ai/ha): 16
NtHPPD-02: nucleotide sequence encoding wild-type Nicotiana tabacum HPPD; vector DBN11750 (nucleic acid, NtHPPD-02 Nucleotide Sequence, vector DBN11750) DNA: ATGGGGAAGCTGGAAACCGTCACTACCACCTCGGCGGCGGCTGCTGATGATTCATCGGAATTAACAACCAACTTCAAGTTGGTTGGTTTCAAAAATTTCATCAGAACAAACCCAAGGTCTGATTTCTTCTCCGTCAAGAGCTTCCACCACATTGAATTCTGGTGCGGTGACGCAACTAACACAGCGCGCCGCTTCTCATGGAGCCTAGGGATGCCAATTGCAGCTAAGAGTGATCTTTCAACAGGAAACAGCGTGCACGCCTCCTACCTCCTCCGGCCCGTAAGCGGTTCTTTACAGTTCCTGTTTACAGCACCATATTCACCTTCTATTTCGACTCCTAGTTCAGCTGCAATCCCATCTTTTTCCACATCTACACATAGGTCTTTCACTACAACACATGGACTGGGTGTTCGTGCCGTCGCCCTCGAGGTGGAGAATGCTTATACTGCCTTCAGTGCTTCTGTCTCCAGAGGCGCCAAGCCAATGTTTGAACCTGTGACAATTGATGAACAAGTAGCAATGGCTGAGGTTCATTTGTACGGCGATGTTGTGCTGCGATTTGTTTCTTATCTCAAGGACGCCGACAACCTGGTCTTCCTGCCGGGGTTTGAGGCCATGGATGAAACTGCTAGTTACAAAGAACTTGATTATGGAATACGGCGTTTGGATCATGCTGTGGGCAATGTTCCAGAACTCGGCCCGGTAGTTGATTACATCAAGAGGTTTACTGGATTTCATGAATTTGCAGAGTTTACCGCTGAAGATGTGGGAACTGCGGAAAGTGGGCTAAACTCCATGGTTCTTGCGAACAATGATGAGACTGTGCTCCTCCCTCTGAATGAGCCTGTTTATGGCACCAAAAGAAAATCTCAGATACAAACATATCTTGAGCATAATGAAGGAGCTGGGGTGCAGCACCTTGCTCTTGTTACTGAAGACATCTTTAAGACTTTGACAGAGATGAGGAAGAGAAGTGGAGTTGGAGGTTTTGAGTTCATGCCTTCCCCCCCGCCGACCTACTACAAGAATTTGAAGAACAGGGCTGGTGACGTCCTCTCAGACGAGCAGATTTTGGCTTGTGAGGAGCTTGGCATCTTGGTAGACCGGGACGACCAGGGGACGCTTCTCCAAATTTTCACAAAACCCGTCGGGGACCGCCCCACCATATTTATTGAGATCATCCAGAGGATAGGCTGCATGCTTAAAGATGGAAAAGGTCAAGTGTACCAGAAGGGTGGTTGTGGTGGGTTTGGCAAAGGAAATTTTTCTGAGCTGTTCAGAAGCATAGAAGAATATGAGAAGACACTGGAAGCAAAACAAGCAAATCAAGTTGCGGCCGCGTGA	Non-resistant	100	0	0	0	16	Non-resistant	100	0	0	0	16	0	0	0	16	0	0	0	16	Scores ([2]; topramezone 25 g ai/ha (1×)): 100; Scores ([2]; topramezone 100 g ai/ha (4×)): 100; Resistance evaluation ([2]; topramezone 25 g ai/ha (1×)): non-resistant (non-resistant plants (scores 68-100)); Resistance evaluation ([2]; topramezone 100 g ai/ha (4×)): non-resistant (non-resistant plants (scores 68-100)); Resistance evaluation ([3]; mesotrione 52.5 g ai/ha): Non-resistant; Scores ([3]; mesotrione 52.5 g ai/ha): 100; Grade 0 (classification and statistics of the grade of pesticide damage; number of plants) ([3]; mesotrione 52.5 g ai/ha): 0; Grade 1 (classification and statistics of the grade of pesticide damage; number of plants) ([3]; mesotrione 52.5 g ai/ha): 0; Grade 2 (classification and statistics of the grade of pesticide damage; number of plants) ([3]; mesotrione 52.5 g ai/ha): 0; Grade 3 (classification and statistics of the grade of pesticide damage; number of plants) ([3]; mesotrione 52.5 g ai/ha): 16; Resistance evaluation ([3]; mesotrione 105 g ai/ha): Non-resistant; Scores ([3]; mesotrione 105 g ai/ha): 100; Grade 0 (classification and statistics of the grade of pesticide damage; number of plants) ([3]; mesotrione 105 g ai/ha): 0; Grade 1 (classification and statistics of the grade of pesticide damage; number of plants) ([3]; mesotrione 105 g ai/ha): 0; Grade 2 (classification and statistics of the grade of pesticide damage; number of plants) ([3]; mesotrione 105 g ai/ha): 0; Grade 3 (classification and statistics of the grade of pesticide damage; number of plants) ([3]; mesotrione 105 g ai/ha): 16
